± gives the uncertainty stated by the source.
Test: amyloid nucleation score (Sup35N fusion, yeast selection) (log enrichment); library NNK1; higher = more nucleation; inactive = no reads after selection
How it was run: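 Nucleation score is defined as the DiMSum log enrichment of output over input reads, with centring on the mode score of non-aggregating sequences. A minimum of 100 input reads was required for each sequence. Reads came from Illumina sequencing of plasmid inserts from psi-negative yeast expressing Sup35N fused to peptides of 20 random codons, induced with 100 μM copper sulfate for 24 hours and grown 7 days at 30°C on medium lacking adenine and uracil.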

| Substance | amyloid nucleation score |
| --- | --- |
| LDVLWTGSRSAAA | -0.05 ± 0.38 |
| VLEISIDSDRAPMCGRRMDL | 0.56 ± 1 |
| CEWVWRGSVCSIWLLVLLPV | 0.09 ± 0.41 |
| TVVHINHHFRGTFISMAKSR | -1.58 ± 2.1 |
| FTMKMGYMVAFIW | -0.394 ± 0.25 |
| FSSSWELVRLYTASCKHDSK | 0.782 ± 0.2 |
| YSFSRQVSMPSSYSFALF | -0.742 ± 0.65 |
| YRLGSKISNSVKPRFDRLVE | inactive |
| ISTFLRFSQSDEQYYPTE | 0.496 ± 0.48 |
| LGDTVCVRYCR | 0.223 ± 0.37 |
| PLHAANDLSCPENLDVWYHE | -0.696 ± 0.83 |
| HFLVKCLLLLSVSSKLCVSR | 0.564 ± 0.33 |
| IGYLDMGNRFGYLLARC | -1.1 ± 0.62 |
| WPGLFMIY | 0.016 ± 0.49 |
| QHPIWCNRSPLTHDRDTVG | 0.239 ± 0.24 |
| SINLCGLWKVYYILAFMW | -2.26 ± 2.4 |
| LALVRVIGDKNRWWRILSVW | 0.708 ± 0.58 |
| NNKQYLI | 1.59 ± 0.38 |
| KCLTFHVSNVFITANPLCLL | 5.936 ± 0.054 |
| HSCRMYYSQRIYIPSNDGSD | 1.68 ± 0.29 |
| HRSYHYMLLHTLEDRCRKN | inactive |
| CLMGTHILGSRVVGTPSMVR | 0.47 ± 1.2 |

| Substance | amyloid nucleation score |
| --- | --- |
| VTACYYSISFCVRGAMYGYV | 1.38 ± 0.33 |
| NRDQRKGIVFTWAVVEPKLP | 0.413 ± 0.97 |
| CMSLFRYENVQYLFTRIHSI | 1.43 ± 0.34 |
| CSCEVNMRLIGCKK | -0.253 ± 1.2 |
| VWLSMEFLCVYTCMPCWSQL | -0.423 ± 0.55 |
| SEAMGMDNSQWSFALFMASM | 0.184 ± 0.48 |
| SKLMRVVCVVISVAYTWNEE | 0.188 ± 0.32 |
| YRALLYFNGIMW | inactive |
| LIKRVQLFV | -0.284 ± 0.4 |
| FYLGPCYAVIWVNFQLPLGV | 0.596 ± 0.33 |
| DPFAHYISVYRDSHSVYLSS | inactive |
| CTVMDRLLTQEPTNRRWSRY | 0.06 ± 0.84 |
| NLSWRISKHMALGVRCLWCH | 0.791 ± 0.72 |
| ISWRNYWY | 1.01 ± 0.22 |
| IWYRQVCANLLSN | inactive |
| LILRVSFN | 2.28 ± 0.16 |
| RDHTIRPLWIAGSHMQFLNR | 0.477 ± 0.34 |
| QGGTVCLEF | -0.578 ± 0.34 |
| VFLRL | 4.48 ± 0.1 |
| INIAMVMPLDGKLIQIDDTC | 0.177 ± 0.31 |
| EFGRDNHVLVLWMGRAPSDM | -0.436 ± 0.55 |
| LVRGVHT | -0.446 ± 0.28 |

| Substance | amyloid nucleation score |
| --- | --- |
| DYFWSSSEGWPEFQNIKSIG | -0.07 ± 1.4 |
| GGRKKQLLDNYKGTYLVARI | -0.096 ± 1.1 |
| TAQMKDFSLRRNVGFVGSRW | inactive |
| YDYLDALHLTEASKSGCLVN | 0.423 ± 0.69 |
| FGAFYVGDHG | -1.7 ± 1.3 |
| LSYKIKDT | 0.626 ± 0.72 |
| SVYWKYLYP | 1.98 ± 0.098 |
| VFSYGWLYQAPFFRFLHTGF | 0.109 ± 0.74 |
| FLGTI | -1.08 ± 2.7 |
| YSRTNMFQ | -0.649 ± 0.5 |
| LRFPLARNHTGYQTGVTEFT | -0.526 ± 0.32 |
| ILSPRVPINRICAVEQRRGI | -0.952 ± 0.83 |
| RFKCDVTTVDW | 0.108 ± 0.24 |
| KGLLTGSCVDSS | -0.015 ± 0.51 |
| LSHWAIVFVICGPRSKKGGS | -0.115 ± 1 |
| CRRRMFLQVPRIYFEMRSYA | 0.492 ± 0.91 |
| KYKFVRANLILFGMVRG | -0.115 ± 0.25 |
| EKSCATRLA | 0.374 ± 0.29 |
| AKELDNGIYFMKLWLREELE | -0.743 ± 1.2 |
| VTQFSVWLVLRICGLTLRWY | 0.31 ± 1 |
| GFTTMEDCGPREGPTIVDDK | -0.149 ± 1.3 |
| AKDFIGQSC | 0.688 ± 0.45 |

| Substance | amyloid nucleation score |
| --- | --- |
| GVFSSQDTRAIDLCSGVYVM | 0.003 ± 1.2 |
| EHHGGISGGNKCCSTCKSRR | 0.361 ± 1 |
| SSIRNVTAICINGSRLINVL | 1.1 ± 0.54 |
| TGVTHC | inactive |
| INTSYIEEHYELVGFVHWNV | -0.449 ± 0.79 |
| CTYTAPYAPSLMPGPRVGYI | inactive |
| SLLCWKLAVHQLGMIGNIYS | -0.452 ± 0.47 |
| IDMIVGNLN | inactive |
| AKLAS | 0.151 ± 0.59 |
| DSSLEVRRNRTSRLYAHFT | -0.218 ± 0.39 |
| SFNNFEFILVIDYKRKSYMR | -0.222 ± 0.36 |
| KSSGALDMFSDTNMV | -0.894 ± 0.39 |
| RHTETSLASSARKPALNPT | 0.197 ± 0.41 |
| PCFSLLDSQRFVFGAKIILR | 0.093 ± 0.69 |
| YLLYDQQVSLRFVWITLSVW | 0.683 ± 0.41 |
| YRNLGGLLGIELINIMLLLW | -0.429 ± 0.93 |
| IIRGVTAGALFYYFSVILLR | -0.214 ± 0.77 |
| IISTWSYGSES | 2.43 ± 0.14 |
| LYYIRVFRNSI | -0.751 ± 0.46 |
| KMLNISGDTMWYVILVLRYV | -0.292 ± 0.56 |
| KMFVIVWCDFDAGALGATVN | -0.488 ± 0.58 |
